Laboratory results taken from the DeepSol protein solubility set.

Assay: soluble on expression in E. coli; label from the status in PepcDB or PDB records

Sequence	soluble on expression in E. coli
MGSDKIHHHHHHMKKYVIVTGGVLSGIGKGIFSASLARLMKEHGVDVNVLKIDPYLNVDAGTMNPNQHGEVFVTEDGYEADLDLGHYERFLGRDMTRQNNMTAGQVYLRVIEKERQGKYLGNTVQIVPHLTEEIKDRIRALEAELLVVEIGGTVGDIEGEVFLEAVRELQMEEGKENFLFAHVTYVPYLRTTNEFKTKPTQQSVQLLRRIGITPDMVIVRSEFPLDVPSMNKVALFSGVPRDFVINLPDTKNVYEVPEILRDMGLHEKIASKLNVELKKSTFNWSYPKAFKPYRIALVGKYLGTDDAYKSIIESVFLTGIEKPTVVDSQMLEDMNDEEVKKVLDEYDALIIPGGFGRRGVEGKIKAIKYARENKKPILGICLGMQLMVIEFARNVFGYKEANSTEFDPNTPYPVVDLMEEQKRILKLGGTMRLGAQKVKIFPKTKLYEVYGGVEEVYERHRHRYEANEEAFPELFKKPGEEGYKLVVSAKSDFIEAVELEDHPFFVGVQFHPEYKSKVGAPHPIFVYLRKVLEGSQ	not soluble
MSLEAKNTFDLSGGYVLPGFIDSHAHLLSTGLEQTRLNLFEYEAKIEAIDAIRRYAEKHDKVVAYRWDESRWRDDPTYITASDLDGIVKPVVAFRRDGHMAVANDQAMRSIGQHRPDGIFREEDMQMLDPLVKPGEEEYVQALQTAIGISASLGITGVRDIVDRATYDAYRRIKSNVRIFKVIYAEDLFAGFGSDPSDWGVKTFLDGSLGARTAAHEGWDTKNLKMSEQQFERFCEGTWSRNLPVAVHAIGDLAVRVAAETMHRHAGRQRNSIEHFELVEDGVLDIIDANTIVSAQPNFLEWAGHGGMYQDRLGESWLYRNNPYRDILDKGLKLAFGSDSMPLGPMYGIHYAVNSEFSQQRITFDEAVRSYSEAGSYLIGAENWIGRIETGYSADFAVFNERNIEDRRRLKEAKPLMTIVHGNTIYDASRVDEGHHHHHH	not soluble
SMHPVAGSNPAFCGPGKPSCLNEDAMRAADQFDLYSSQQNKYSHTVSHKPMVCQRQDPLNETHLQPTSGRNIEIKDELKKKKNLNRSGKRGRPSGTTKSAGYRTSTGRPLGTTKAAGFKTSPGRPLGTTKAAGYKVSPGRPPGSIKALSRLADLGYGCGTAAFPYPMMHSRVVHGLQETSGEVKPPSE	soluble
MWIEELANGKFKYIERYTDPLTNKYKKVSVTLDKNSSQAQKKAGLILQEKIEDRLAIRNHSEMTYGELKKEYLKQWIPTVKDSTKRGYLVSDSHIATVLPDDTIINKLTKRDIRLIIDKLLKHNSYHVTHKCRKRLHAIFSYAIQMDYMTSNPTENVLVPKPKDDYKPEKVLYLTSNEVYDLCNRMIDNDEQTLADIVLFMFLTGVRYGELSCLTYDKIDFENKEILINATYDFNTREITTTKTKKSTRKISVSDNILDIVNRQKKTSSFVFPNSNGVPILNAYINKRLKIYGDYHTHLFRHSHISFLAEKGIPLNAIMDRVGHSDPKTTLSIYSHTTVNMKEIINKQTAPFVPLLKSE	not soluble
EAMFCDFPKINHGILYDEEKYKPFSQVPTGEVFYYSCEYNFVSPSKSFWTRITCAEEGWSPTPKCLRLCFFPFVENGHSESSGQTHLEGDTVQIICNTGYRLQNNENNISCVERGWSTPPKCRSTISAEKCGPPPPIDNGDITSFLLSVYAPGSSVEYQCQNLYQLEGNNQITCRNGQWSEPPKCLDPCVISQEIMEKYNIKLKWTNQQKLYSRTGDIVEFVCKSGYHPTKSHSFRAMCQNGKLVYPSCEEK	not soluble
MSIKIDLNKCVGCQKCINICPGSLIDKNNDGKAYIKYPKDCWGCTACLKECKFKAIKYFLGADIGGNGSYMYVSEKGEELEWHMINEDGKEKIITTSRKESNKYLEHHHHHH	not soluble
MGSDKIHHHHHHMSADGSEYGRYFEQLQKVNLTVRLGDTGSFDGTAAITSLKGSLAWLELFGAEQPPPNTLSEGAEVSVSVWTGGALCRCDGRVETLRDDRQFAIRLVGRVRELQRREYFRLDVSIPFSYELLAGVSPEEAQERWLHERMDSWRSPAMVQEGSSWRVVDWNGRDIPSARANLSGGGMRFRVSEDVASGTLMLVSLFLPHPQPRVICVLAEALRCAEITLTLQAGTHYSLSMRFITISDKDREAVISYLFSEQRRELMSKSDRFQIGGRR	not soluble
